# Test results taken from patent US20100249021A1.
# B1: polypeptide HR1 combined with HR2B (peptide)
# peptide 1: KESTQKAIDGVTNKVNSIIDK
# peptide 2: NAELLVLMENERTLDFHDSNVKN
# B2: polypeptide HR1 combined with HR2A (peptide)
# peptide 1: KESTQKAIDGVTNKVNSIIDK
# peptide 2: RRIENLNKKMEDGFLDVWTY
# B3: polypeptide HR1 combined with HR2C (peptide)
# peptide 1: KESTQKAIDGVTNKVNSIIDK
# peptide 2: FHDSNVKNLYDKVRLQ
# Tests used:
# Assay in all cases: cell-based or functional assay
# [1] = molecular target: membrane protein HA of recombinant avian influenza virus QH-WSN (HA of H5N1 strain A/bar-headed goose/Qinghai/1/05) (avian influenza virus H5N1, strain A/bar-headed goose/Qinghai/1/05)
# [2] = molecular target: membrane protein HA of recombinant human influenza virus A/WSN/33 (H1N1) (human influenza virus A/WSN/33 (H1N1)) (UniProt P03454)
# [3] = molecular target: membrane protein HA of recombinant avian influenza virus QH-WSN (HA of H5N1 strain A/bar-headed goose/Qinghai/1/05) (avian influenza virus H5N1, strain A/bar-headed goose/Qinghai/1/05); remark: listed apart in the source
# [4] = molecular target: membrane protein HA of recombinant human influenza virus A/WSN/33 (H1N1) (human influenza virus A/WSN/33 (H1N1)) (UniProt P03454); remark: listed apart in the source
Molecule,plaque inhibitory rate on cells expressing the fusion protein [1] [%],plaque inhibitory rate on cells expressing the fusion protein [2] [%],"IC50, plaque inhibition on MDCK cells, peptide combination [3] [µM]","IC50, plaque inhibition on MDCK cells, peptide combination [4] [µM]"
fusion protein HR1-EGFP expressed on the membrane of MDCK cells (from UniProt P08138 251-272),25,11,,
fusion protein HR2-EGFP expressed on the membrane of MDCK cells (from UniProt P08138 251-272),57.8,43,,
B1,,,36.7,62.5
B2,,,43.6,52.9
B3,,,41.6,30
